This is an account of results in paper PMC10720262, “Molecular determinants of cross-reactivity and potency by VH3-33 antibodies against the Plasmodium falciparum circumsporozoite protein” (Cell Reports, 2023).

Assay [1] has as its target mAb 317. As to the kind of experiment: SPR; Carterra LSA; mAb amine-coupled to a CMD200M chip, peptide titrated in 2-fold steps up to 8 ug/mL without regeneration; 25 C; HBSTE (10 mM HEPES pH 7.4, 150 mM NaCl, 3 mM EDTA, 0.01% Tween 20); 1:1 Langmuir model; mean of triplicates; KD includes avidity for antigens with several repeats.
Assay [2] deals with mAb CIS43. The description is as above.
Chain of mAb CIS43 (heavy, as listed by the source, chain 1 of 2): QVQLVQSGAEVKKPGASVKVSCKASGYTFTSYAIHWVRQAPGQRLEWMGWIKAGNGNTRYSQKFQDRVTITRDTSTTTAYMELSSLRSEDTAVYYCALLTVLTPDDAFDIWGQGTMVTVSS
Chain of mAb CIS43 (light, as listed by the source, chain 2 of 2): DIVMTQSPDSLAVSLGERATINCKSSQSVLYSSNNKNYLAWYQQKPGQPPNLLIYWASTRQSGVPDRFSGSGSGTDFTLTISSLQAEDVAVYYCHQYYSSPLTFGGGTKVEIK
For assay [3], the target named is mAb 317. Description: SPR.
Chain of mAb 317 (heavy, as listed by the source, chain 1 of 2): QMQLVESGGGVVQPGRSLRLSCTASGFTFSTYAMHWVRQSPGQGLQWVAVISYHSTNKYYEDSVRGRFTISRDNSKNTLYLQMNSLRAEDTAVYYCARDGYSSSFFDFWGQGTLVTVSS
Chain of mAb 317 (light, as listed by the source, chain 2 of 2): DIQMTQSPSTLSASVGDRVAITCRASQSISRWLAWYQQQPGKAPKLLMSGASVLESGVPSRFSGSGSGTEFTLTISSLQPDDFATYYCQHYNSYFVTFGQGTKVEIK
For assay [4], the target named is mAb CIS43. Description: SPR.

In the assay with mAb 317 [1], NPDP peptide showed a Kd of 4560 nM, a koff of 0.0454 s⁻¹ and a kon of 10000 M⁻¹ s⁻¹. In the assay with mAb CIS43 [2], this substance yielded a Kd of 19.1 nM, a koff of 0.00216 s⁻¹ and a kon of 113000 M⁻¹ s⁻¹.

In the assay with mAb 317 [1], NPNA3 peptide had a Kd of 7.03 nM, a koff of 0.00138 s⁻¹ and a kon of 197000 M⁻¹ s⁻¹. In the assay with mAb CIS43 [2], the Kd worked out at 9430 nM, the koff was 0.0706 s⁻¹ and the kon was 7940 M⁻¹ s⁻¹.

Take NANP3 peptide: in the assay with mAb 317 [3], the Kd was found to be 16.6 nM, the koff is 0.0206 s⁻¹ and the kon came to 1.24e+06 M⁻¹ s⁻¹. Also, the Kd with mAb CIS43 [4] turned out to be 1720 nM.
